Laboratory results from the RNAGym collection of RNA variant scans (doi:10.7554/elife.90254).

B1: OR4K15 (parent)
chain: GUUAACGGUCAUAGGCCAUGGAAACUAGGAGCACCAUUUCGCUGCCAGUGAAGAAAUGAACAAAGAAAAUCUGGGCCAGGCAGGCAUCAAAAGAAAUAGUCUUGCGCUCAACCAGAAAGUCUGUAAUCAUUUUAAGGGUA

Variants of: B1
Assay: self-cleavage, relative activity (ratio to wild type); higher = more cleavage; in vitro, sequencing; the parent is a self-cleaving ribozyme
In the case of A92U U130C, the self-cleavage is reported as 1.59. Work on A56G U87G yielded a self-cleavage of 0.32. In the case of A22G U103C, the self-cleavage is reported as 0.98. G21U A52G gave a self-cleavage of 1.58. For C34U A92G, the self-cleavage was 1.04. With U72C U139A the self-cleavage was 0.24. Work on U12C A129G yielded a self-cleavage of 0.89. With A56G A91G the self-cleavage was 0.51. In the case of C76U U124A, the self-cleavage is reported as 0.02. Variant A95G G104A has a self-cleavage of 0.08. Work on U38A A89G yielded a self-cleavage of 2.67. In the case of A68G U139C, the self-cleavage is reported as 0.95. Work on A51G U124A yielded a self-cleavage of 1.04. U3C U70C showed a self-cleavage of 0.76. In the case of G14A A66G, the self-cleavage is reported as 0.8. For U43G A116G, the self-cleavage was 0.96. Variant A98G U133A has a self-cleavage of 0.24. Work on A59U U130C yielded a self-cleavage of 1.05. Variant A54G G137U has a self-cleavage of 1.44. In the case of U2G A118G, the self-cleavage is reported as 0.66. For A5G A62U, the self-cleavage was 1.09. In the case of A59G A110G, the self-cleavage is reported as 0.17. A13U A110U showed a self-cleavage of 1.26. With A64G U103C the self-cleavage was 1.2. A5G U120C showed a self-cleavage of 0.86. In the case of G28U A135C, the self-cleavage is reported as 2.26. Variant A22G A126C has a self-cleavage of 0.67. With G28U A62G the self-cleavage was 1.64. A18G A129G showed a self-cleavage of 1.25. Work on A62U G84C yielded a self-cleavage of 0.25. For G41A G136A, the self-cleavage was 1.2. Variant C34U A118G has a self-cleavage of 1.49. A69G A90U gave a self-cleavage of 1.9. U57G G137C gave a self-cleavage of 1.71. With A47U A59G the self-cleavage was 0.62. For G29U A78U, the self-cleavage was 0.35. Work on A62G G74A yielded a self-cleavage of 0.24. Work on A11G A33G yielded a self-cleavage of 0.84. In the case of A5G G137U, the self-cleavage is reported as 1.62. For A59U U131C, the self-cleavage was 1.25. Variant G119A U132C has a self-cleavage of 2.46. For U70C U131A, the self-cleavage was 0.45. With U127C A135U the self-cleavage was 0.65. In the case of A68G A91C, the self-cleavage is reported as 1.44. Work on A89G A125G yielded a self-cleavage of 0.16. In the case of U49C U132G, the self-cleavage is reported as 0.91. A23U C32U showed a self-cleavage of 2.28. A62U U120C showed a self-cleavage of 1. For U38C A140G, the self-cleavage was 2.16. Variant C71A U120C has a self-cleavage of 0.24. In the case of A33C A135G, the self-cleavage is reported as 1.64. A13C A30G gave a self-cleavage of 1.49. A27U U38C showed a self-cleavage of 1.83. Work on C71A A95G yielded a self-cleavage of 0.88. A27G A52G showed a self-cleavage of 1.44. Work on A22G C105U yielded a self-cleavage of 0.25. With U9C C40U the self-cleavage was 1.45. Variant A78U U87G has a self-cleavage of 0.09. With G28A U102C the self-cleavage was 0.81. In the case of A126G U130G, the self-cleavage is reported as 1.19. In the case of U43A A110U, the self-cleavage is reported as 2.05. Work on U49C U133C yielded a self-cleavage of 1.76. Variant A51U A56G has a self-cleavage of 0.93. With A36G A126U the self-cleavage was 1.76. Variant A52G C121G has a self-cleavage of 2.33. For G83A A89G, the self-cleavage was 1.56. With A11C A52U the self-cleavage was 1.5. With U9A A82U the self-cleavage was 0.12. For U49C A66U, the self-cleavage was 1.39. A60U A86G gave a self-cleavage of 0.74. Variant U70C U139A has a self-cleavage of 1.3. For U2C U132C, the self-cleavage was 1.4. C128U showed a self-cleavage of 0.85. With U39A A62G the self-cleavage was 1.21. In the case of A63G, the self-cleavage is reported as 1.41. Variant A33G A92C has a self-cleavage of 0.81. Variant U39A A110U has a self-cleavage of 2.06. In the case of U72A U139A, the self-cleavage is reported as 0.24. G44U A63G gave a self-cleavage of 1.46. Work on C81A A135G yielded a self-cleavage of 0.22. With C35A A51U the self-cleavage was 1.93. A36G U102C showed a self-cleavage of 1.88. With G50A A92U the self-cleavage was 2.15. For A67U A90G, the self-cleavage was 1.72. Variant A18G U131C has a self-cleavage of 1.63. Work on A30G A60G yielded a self-cleavage of 0.96. With U37C U38C the self-cleavage was 1.51. Work on U26C yielded a self-cleavage of 1.26. Work on G44U A135G yielded a self-cleavage of 1.6. Variant A47C A52G has a self-cleavage of 0.57. Variant G84C has a self-cleavage of 0.29. For A47U A134G, the self-cleavage was 1.24. With A55G A114C the self-cleavage was 0.05. A18U U87C showed a self-cleavage of 1.41. For A11C A78G, the self-cleavage was 0.18. A118G U132A showed a self-cleavage of 1.11. With A36G A59U the self-cleavage was 0.83. In the case of A64U A129G, the self-cleavage is reported as 1.34. With U57C A129G the self-cleavage was 1.43. For U38A U124A, the self-cleavage was 0.87. Variant A95G A117U has a self-cleavage of 1.7. For A62U U97C, the self-cleavage was 0.96. A13G C61U gave a self-cleavage of 0.68. G8A A118G gave a self-cleavage of 1.28. For G80A A95U, the self-cleavage was 0.17. With G74U U120C the self-cleavage was 0.08. A47G A118U showed a self-cleavage of 0.67. C85G A125G showed a self-cleavage of 0.55. Variant U103A A114G has a self-cleavage of 0.45. Work on A47G U57C yielded a self-cleavage of 0.69. With C10U G31U the self-cleavage was 1.22. In the case of A36U C61U, the self-cleavage is reported as 2.41. G79U A135G gave a self-cleavage of 0.02. A114G A140U gave a self-cleavage of 0.41. For A116U G136A, the self-cleavage was 0.07. For A11G A54U, the self-cleavage was 1.09. In the case of A22U U122C, the self-cleavage is reported as 1.37. In the case of A52G A134G, the self-cleavage is reported as 1.25. U9C G74U gave a self-cleavage of 0.15. U3C U57A gave a self-cleavage of 0.88. In the case of U87G A126G, the self-cleavage is reported as 0.48. In the case of A23C U43C, the self-cleavage is reported as 1.86. A51G G80A showed a self-cleavage of 0.36. In the case of A89G G115U, the self-cleavage is reported as 0.11. In the case of U70A A135G, the self-cleavage is reported as 0.74. U9C A118G showed a self-cleavage of 1.32. Variant C112G U120A has a self-cleavage of 0.01. For A30G A118U, the self-cleavage was 0.62. For A68G A129C, the self-cleavage was 0.82. For U124C U139C, the self-cleavage was 0.91. Variant A96G A125U has a self-cleavage of 1.42. A67G G93U gave a self-cleavage of 1.17. A78U A98U showed a self-cleavage of 0.71. For A86G U120A, the self-cleavage was 1.8. Work on A47U U130C yielded a self-cleavage of 0.43. Variant C25U A51G has a self-cleavage of 2.48. Variant U2A U26C has a self-cleavage of 0.99. A110G U122G showed a self-cleavage of 0.26. With A23G U57C the self-cleavage was 1.04. For U130C U132C, the self-cleavage was 1.17. For G53U A126G, the self-cleavage was 1.4. Variant A114U has a self-cleavage of 0.06. Work on U49A A94G yielded a self-cleavage of 1.11. Work on G29A U122C yielded a self-cleavage of 1.08. A51G U87C gave a self-cleavage of 0.86. In the case of U49A U127G, the self-cleavage is reported as 1.97. U49C A135G gave a self-cleavage of 1.97. A33C A66G gave a self-cleavage of 1.88. Work on C16G A95G yielded a self-cleavage of 1.06. Work on A24G G93A yielded a self-cleavage of 0.88. Work on A24G U102C yielded a self-cleavage of 1.48. U38C A110U showed a self-cleavage of 1.46. Work on A5U U70C yielded a self-cleavage of 1.03. Variant U12A U122A has a self-cleavage of 0.62. In the case of A89G G123A, the self-cleavage is reported as 1.52. For U127A U130C, the self-cleavage was 0.43. For C76G U122C, the self-cleavage was 0.15. Work on A36G A98U yielded a self-cleavage of 2.12. In the case of A47C A90G, the self-cleavage is reported as 1.61. With A86G U130C the self-cleavage was 1.2. For A86G A94G, the self-cleavage was 1.47. Variant A54U A56U has a self-cleavage of 1.8. In the case of C81U U108C, the self-cleavage is reported as 0.02. C46U U103C gave a self-cleavage of 1.41. In the case of A18G A110U, the self-cleavage is reported as 1.32. In the case of U19A A116G, the self-cleavage is reported as 1.24. Variant A24C U57A has a self-cleavage of 1.21.
